Assay results as given in CN107522783A (HUABO BIOPHARM MEDICINE TECH SHANGHAI CO LTD, dated 2017).

B1: 嵌合抗体 (antibody, V domains shown)
VH: QVQLQQSGPEVVRPGVSVKISCKGSGYTFTDYAMHWVKQSHAKSLEWIGVIGPYNDNTNYNQKFKGKATMTVDKSSSTAYMEIARLTSEDSAIYYCARGERYFDYWGQGTTLTVSS
VL: DIQMTQSSSYLSVSLGGRVTITCRASDHINNWLAWYQQKPGNAPRLLIYGATSLETGVPSRFSGSGSGKDYTLSITSLQTEDVATYYCQQYWTIPLTFGAGTKLELK
notes: also called chimeric 14F10/9F6 antibody; 本发明嵌合抗体
B2: 人源化抗体 (antibody, V domains shown)
VH: QVQLVQSGAEVKKPGASVKVSCKASGYTFTDYAMHWVRQAPGQGLEWMGVIGPYNDNTNYAQKFQGRVTMTVDTSTSTVYMELSSLRSEDTAIYYCARGERYFDYWGQGTTVTVSS
VL: DIQMTQSPSTLSASVGDRVTITCRASDHINNWLAWYQQKPGKAPKLLIYGATSLETGVPSRFSGSGSGTEYTLTISSLQPDDFATYYCQQYWTIPLTFGQGTKLEIK
notes: Expressed in CHO-K1; also called IL17-HC5-1D4/IL17-LC5-1C5; 本发明人源化抗体

What was measured:
[1] = target: T1, Recombinant mouse IL-17A (Sino Biological, PBV10159R-010) (mouse, UniProt Q62386 26-158); assay: indirect ELISA, mouse IL-17A coated at 1 μg/ml; paragraph 219 says 与小鼠的IL-17A无结合
T1 construct: Bought recombinant protein; also called 小鼠的IL-17A
T1 sequence (looked up): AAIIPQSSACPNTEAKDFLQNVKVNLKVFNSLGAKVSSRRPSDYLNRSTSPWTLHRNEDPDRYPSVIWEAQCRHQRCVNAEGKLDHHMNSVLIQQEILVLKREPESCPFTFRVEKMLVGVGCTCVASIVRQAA

[2] = target: T2, Recombinant human IL-17A (Sino Biological, 12047-HNAS) (human, UniProt Q16552 24-155); assay: indirect ELISA, human IL-17A coated (Table 5, species cross-reactivity)
T2 construct: mature; Bought recombinant protein; also called 人IL-17A; huIL-17A
T2 sequence (looked up): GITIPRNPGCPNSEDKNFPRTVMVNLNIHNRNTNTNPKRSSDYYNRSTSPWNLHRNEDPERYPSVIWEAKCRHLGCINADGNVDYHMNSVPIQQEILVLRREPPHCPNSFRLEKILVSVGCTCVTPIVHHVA

[3] = target: T2, Recombinant human IL-17A (Sino …); assay: indirect ELISA, human IL-17A coated at 1 μg/ml
[4] = target: T3, Recombinant marmoset IL-17A (Sino Biological, 90287-CNAE-100) (marmoset, UniProt A0ACM8QD00 24-153); assay: indirect ELISA, marmoset IL-17A coated (Table 6)
T3 construct: Bought recombinant protein; also called 狨猴IL-17A
T3 sequence: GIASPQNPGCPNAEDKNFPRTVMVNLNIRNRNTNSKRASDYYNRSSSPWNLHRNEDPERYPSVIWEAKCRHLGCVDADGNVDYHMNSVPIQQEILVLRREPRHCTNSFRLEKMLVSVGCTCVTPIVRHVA

[5] = target: T2, Recombinant human IL-17A (Sino …); assay: Biacore SPR, antibody captured on anti-human capture CM5 chip, IL-17A as analyte, 1:1 model

| Binder | binding result [1] | EC50 [2] | EC50 [3] | EC50 [4] | Kd [5] | koff [5] | kon [5] |
| --- | --- | --- | --- | --- | --- | --- | --- |
| B1 | no binding | 0.03 µg/mL | 0.03 µg/mL | 0.0264 µg/mL | 97 pM | 0.000101 s⁻¹ | 1.04e+06 M⁻¹ s⁻¹ |
| B2 |  |  |  |  | 19 pM | 0.000181 s⁻¹ | 9.56e+06 M⁻¹ s⁻¹ |
